Results published in patent publication US20130116417.

Test system: monoclonal antibody 2G12 (anti-HIV gp120)
Test: filter

Sequence | Kd (each U is 5-ethynyl-dU glycosylated with Man4-azide by CuAAAC click (10 sites), T in the primer region unmodified, 20 mM Tris pH 7.5, 100 mM NaCl, 2 mM MgSO4, 0.02% Tween-20, room temperature, 3 h, after 7 SELMA rounds) [nM] | binding (library template (-)-strand listed, assayed (+)-strand has 5-ethynyl-dU in place of T, glycosylated with Man4-azide, initial random library, less than 3% bound) [% bound]
CACCAAATACGGGTACGGGCCCGGCUGUUUCAGAUGCUGUAAGUAAGGUGACUGCGGAACAACAG [Man4-16 (clone 16 glyco-DNA)] | 220 | 
CTGTTGTTCCGCAGTCACCTTNNNNNNNNNNNNNNNNNNNNNNNNNCCCGTACCCGTATTTGGTGGCAAGGATGACAAGGATTTTATATTTTATATTTTTATTTTATTATCGGGTACGGG [initial random glyco-DNA library] |  | < 3
